This note sets out measurements from patent US20250250361A1, “ANTI-PLA2G10 ANTIBODIES AND METHODS OF USE” (Yale University, priority 2022, published 2025).

“Also recorded” adds a separate entry of the source.

Experiment [1] concerns T cell migration inhibited by PLA2G10. Kind of experiment: high throughput T cell mobility assay (TCMA). As to conditions: activated primary human T cells from 3 donors, CXCL11 100 ng/ml. The experiment is classed as cell-based. As for the experimental part:
A high throughput T cell mobility assay (TCMA) was performed to assess the ability of the antibody clones identified in Example 1 and varespladib (a small molecule PLA2G10 inhibitor) to attenuate the inhibitory effect of PLA2G10 on T cell migration. The TCMA was built by modifying Boyden's two-chamber assay in a 96-well format, in which two chambers were separated by a porous membrane. While activated T cells on the upper chamber are largely held by the membrane, exposure to chemokines allows T cells to transpass the membrane and migrate into the lower chamber. In the assay, HEK293T cells 5×10^4 were seeded in a reservoir plate (the lower chambers) arrayed with human secretory molecule encoding genes and transiently transfected using jetPRIME® transfection reagent (Polyplus transfection) as described previously (Yao et al., (2011) Immunity 34:729-740). After overnight incubation, the culture supernatant was replaced by a fresh migration medium (RPMI-1640 containing 1% fetal calf serum from Atlanta Biologicals) and further cultured for 2-3 days. […] At the end of incubation, the upper chamber was removed, and cells in the lower chambers were collected and stained with AF647-labeled anti-human CD45 mAb (clone 2D1, Biolegend) and numerated by the Mirrorball® plate reader (TPP Labtech). […]

Experiment [2] has as its target T1, recombinant human PLA2G10 protein (Origene) (human, UniProt O15496 43-165, limits assumed).
T1 construct: also called rhPLA2G10; hPLA2G10
T1 sequence (looked up): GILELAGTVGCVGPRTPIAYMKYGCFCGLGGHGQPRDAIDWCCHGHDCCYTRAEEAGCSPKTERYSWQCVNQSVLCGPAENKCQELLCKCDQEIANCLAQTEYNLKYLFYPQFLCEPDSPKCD
Kind of experiment: one-way ELISA, plates coated with human PLA2G10 (Origene). As to the method: (§1) A one-way ELISA was performed to assess antibody binding to PLA2G10. Plates were coated with either human PLA2G10 (Origene) or mouse PLA2G10 (NP285) at 0.5 mg/ml and tested using a PLA2G10 ELISA kit (Elabscience, China) per the manufacturer's instructions. Testing results were normalized as (Vt−Vm)/Vm, where Vt indicates the value calculated according to the standard curve and Vm indicates the mean value of all samples tested on the same ELISA plate.
Background: ELISA stands for enzyme-linked immunosorbent assay.

For the next experiment, the target named is T2, human PLA2G10 (Homo sapiens, UniProt O15496).
T2 construct: purchased Origene
T2 sequence (O15496 43-165): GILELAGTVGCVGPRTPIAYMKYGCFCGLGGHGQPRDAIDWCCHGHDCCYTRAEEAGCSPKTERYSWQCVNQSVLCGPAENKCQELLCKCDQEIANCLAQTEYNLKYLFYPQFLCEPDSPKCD
Kind of experiment: one-way ELISA, antibody binding to human PLA2G10. As to conditions: plates coated with human PLA2G10. As to the method:
as §1

A further experiment deals with T3, mouse PLA2G10 (Mus musculus, UniProt Q9QXX3).
T3 construct: NP285
T3 sequence (Q9QXX3 29-151): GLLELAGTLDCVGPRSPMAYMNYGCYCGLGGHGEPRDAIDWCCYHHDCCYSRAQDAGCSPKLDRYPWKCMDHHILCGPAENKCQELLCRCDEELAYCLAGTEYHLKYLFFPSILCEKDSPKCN
Kind of experiment: one-way ELISA, antibody binding to mouse PLA2G10. As to conditions: plates coated with mouse PLA2G10. As for the experimental part:
as §1

Experiment [3] concerns the target T4, recombinant human PLA2G10 (rhPLA2G10) (Homo sapiens, UniProt O15496).
T4 sequence (O15496 43-165): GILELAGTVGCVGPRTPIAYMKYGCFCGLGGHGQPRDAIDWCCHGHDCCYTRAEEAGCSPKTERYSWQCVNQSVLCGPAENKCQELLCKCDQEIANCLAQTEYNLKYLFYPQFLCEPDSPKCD
The experiment is described as follows: sPLA2 assay kit, phospholipase enzymatic activity of human PLA2G10. The experiment is classed as biochemical. As to conditions: rhPLA2G10 2.5 μg/ml, antibody 25 μg/ml, RT 30 minutes preincubation. As to the method:
(§2) The PLA2G10 enzymatic activity for hydrolysis of phospholipids was tested using a sPLA2 assay kit (Cayman Chemical, MI) according to manufacturer's instructions. Briefly, the 1,2-dithio analog of diheptanoyl phosphatidylcholine serves as a substrate for sPLA2s. Upon hydrolysis of the thioester bond at the sn-2 position by PLA2G10, free thiols are detected using DTNB (5,5′-dithio-bis-(2-nitrobenzoic acid)). Recombinant human PLA2G10 protein (rhPLA2G10) (0.5 μg, 2.5 μg/ml final concentration) was incubated with 1C11 antibody (5 μg, 25 μg/ml final concentration) at RT for 30 minutes before testing. Mouse PLA2G10 protein (mPLA2G10-IgFc) (0.32 mg/ml) was incubated with 1C11 or 2B12 antibody (1 mg/ml) at 37° C. for 45 minutes before testing.

Experiment [4] concerns mouse PLA2G10 (mPLA2G10-IgFc). Kind of experiment: sPLA2 assay kit, phospholipase enzymatic activity of mouse PLA2G10. The experiment is classed as biochemical. The note with it: mPLA2G10-IgFc 0.32 mg/ml, antibody 1 mg/ml, 37° C. 45 minutes preincubation. As to the method:
as §2

In another experiment the test system is MC38-2G10 tumors. The experiment is described as follows: MC38-2G10 syngeneic tumor model. The experiment is classed as in vivo. The note with it: established tumors in mice, antibodies at 6, 11 and 16 days after inoculation. As to the method:
FIG. 4 is a graph showing MC38-2G10 tumor growth in mice over time with anti-PLA2G10 antibody 1C11, anti-PD-1 antibody G4, or combined treatment. Mice were treated with antibodies at 6, 11, and 16 days after tumor inoculation. Representative results of two independent experiments are shown as the mean±SEM. Data were analyzed by two-way ANOVA. * p<0.05, ns=not significant.
To investigate the in vivo effects of anti-PLA2G10 antibody 1C11, a tumor cell line, MC38-2G10, was established by lentivirus-mediated gene transduction to stably express murine PLA2G10 homolog.

For the next experiment, the system named is KPC-2G10 tumors. Kind of experiment: KPC-2G10 syngeneic tumor model. The class given is in vivo, mice. As for the experimental part:
FIG. 5A is a graph showing KPC-2G10 tumor growth in mice over time with anti-PLA2G10 antibody 1C11, anti-PD-1 antibody G4, or combined treatment. Mice were treated with antibodies at 5, 10, and 15 days (+20-day treatment for 1C11) after tumor inoculation. Representative results of two independent experiments are shown as the mean±SEM. Data were analyzed by one-way ANOVA. FIG. 5B is a graph showing quantification of CD3+T cells by immunohistochemistry staining with an anti-CD3 mAb in the KPC-2G10 tumors with or without 1C11 treatment. Cell numbers of five hpfs were randomly picked in each sample for counting and average cell counts were plotted. Box whisker plots depict the mean, the minimum to the maximum value, and each data point was shown. Data were analyzed by the Mann-Whitney test. * p<0.05.
Similar results were also obtained in another syngeneic mouse model using the KPC pancreatic cancer subline, which has moderate TILs when growing subcutaneously (Sun et al., 2021, Sci Transl Med 4, 127ral37) (FIG. 5A).

A further experiment has as its system HT-29 tumors. Kind of experiment: HT-29 xenograft tumor model in NSG mice. The class given is in vivo. As to conditions: compared to control. As for the experimental part: FIG. 6A is a graph showing HT29 xenograft tumor growth over time with anti-PLA2G10 antibody 1C11 or control treatment. Data were analyzed by one-way ANOVA. * p<0.01. FIG. 6B is a series of pictures showing 1C11 or control antibody treated tumors at day 37. Tumors were surgically removed, formalin-fixed, and sectioned. Tumor tissue sections were studied by immunohistochemistry using an anti-human CD3 mAb. FIG. 6C is a graph showing quantification of CD3+ T cells in control antibody or 1C11 treated tumors (hpf, high power field x400). Cell numbers of ten […] hpfs were randomly picked in each sample for counting and average cell counts were plotted. Box whisker plots depict the mean, the minimum to the maximum value, and each data point was shown. Data were analyzed by the Mann-Whitney test. * p<0.05.
The human colon adenocarcinoma cell line HT-29 secretes PLA2G10 and forms tumors when inoculated in immunodeficient NSG (NOD scid gamma) mice subcutaneously.

The mark [5] stands for this setting: CD3+ T cells by immunohistochemistry.

Turning to `CCc1c(C(=O)C(N)=O)c2c(OCC(=O)O)cccc2n1Cc1ccccc1` [varespladib, reference compound], in [1], the “reversal of T cell migration inhibited by PLA2G10” value is “reversed”.

B1: anti-PLA2G10 antibody 1C11 (mouse IgG2a) (antibody, V domains shown)
VH: QVTLKESGPGILHPSQTLSLTCSFSGFSLNTFGLGVGWVRQPSGKGQEWLAHIWWDDDRYYNPPLKSRLTISKDPSKNQVFLTIPNVNTANTATYYCTQILPHWVAYWGQGTTLTVSS
VL: DIQMNQSPSSLSASLGDTITISCHASQNINVWLSWYQQKPGNIPKLLIYKASNLHTGVPSRFSGSGSGTGFTFTISSLQPEDIATYFCQQGQSYPFTFGGGTKLELK
notes: also called 1C11 antibody; anti-PLA2G10 mAb IC11
Turning to B1, the binding result in [2] was “binds”.

B2: 1C11: anti-PLA2G10 antibody clone, VH SEQ ID NO: 1, VL SEQ ID NO: 2; binds human and mouse PLA2G10 (antibody, V domains shown)
VH: QVTLKESGPGILHPSQTLSLTCSFSGFSLNTFGLGVGWVRQPSGKGQEWLAHIWWDDDRYYNPPLKSRLTISKDPSKNQVFLTIPNVNTANTATYYCTQILPHWVAYWGQGTTLTVSS
VL: DIQMNQSPSSLSASLGDTITISCHASQNINVWLSWYQQKPGNIPKLLIYKASNLHTGVPSRFSGSGSGTGFTFTISSLQPEDIATYFCQQGQSYPFTFGGGTKLELK
Take B2: the “binding to human PLA2G10 protein” value with human PLA2G10 is “recognized; also recorded: showed binding”. The “binding to mouse PLA2G10 protein” value in the experiment with mouse PLA2G10 is given as “recognized; also recorded: showed binding”. Moreover, in experiment [1], the “reversal of T cell migration inhibited by PLA2G10” value was “reversed”. Further, in experiment [3], the “inhibition of phospholipase enzymatic activity of human PLA2G10” value is listed as “inhibited”. Further, the “inhibition of phospholipase enzymatic activity of mouse PLA2G10” value in experiment [4] is listed as “inhibited”. Also, the MC38-2G10 tumor growth result in the experiment with MC38-2G10 tumors is recorded as “did not induce the regression”. For the same molecule, the “T cell infiltration in KPC-2G10 tumors” value in the experiment with KPC-2G10 tumors (setting [5]) is on record as “promoted T cell infiltration”. The KPC-2G10 tumor growth result in the experiment with KPC-2G10 tumors (syngeneic mice, subcutaneous, antibodies at 5, 10, 15 days) is “responded partially”. Besides, the “T cell infiltration in HT-29 tumors” value with HT-29 tumors (setting [5]) is “promoted T cell infiltration”. Moreover, the “HT-29 xenograft tumor growth” value in the experiment on HT-29 tumors (subcutaneous) is given as “retarded tumor growth”.
